Laboratory results reported in patent US20230181719A1, “NGR CONJUGATES AND USES THEREOF” (OSPEDALE SAN RAFFAELE S.R.L., priority 2020, published 2023).
Like-named read-outs stand apart in the source and are kept apart here. Positions of bridges follow the written chain, without caps; N, C: chain ends. No end group written: not given here.

Legend:
[1] = system: RMA-T lymphoma; format: in vivo, mice
Procedure: RMA-T tumor-bearing mice (6 per group) were treated 11 days after tumor implantation with 100 pg of S-NGR-hTNF (i.p.). Two hours later, the mice were injected (i.p.) with 50 µg of melphalan (generic preparation of melphalan, Tillomed).
B) Kaplan-Maier curves of vehicle, melphalan alone and in combination with S-NGR-hTNF.
C) Animal body weight change (mean ± SE, 6 mice per group). Arrows: pharmacological treatment.
Inventors have shown previously that low-dose murine S-NGR-TNF (100 pg) can enhance the antitumor activity of melphalan, an anticancer alkylating agent, in a murine lymphoma model (Corti et al., 2020). To assess whether S-NGR-hTNF can also synergize with melphalan, inventors performed similar experiments using the RMA-T lymphoma model. As expected, administration of melphalan (50 µg) in combination with S-NGR-hTNF (100 pg) induced stronger antitumor effects than melphalan alone (FIGS. 21A-B).

[2] = buffer; cited from earlier work
[3] = target: αvβ3 (Homo sapiens, UniProt P05106+P06756); details: cited from earlier work
[4] = system: malignant pleural mesothelioma (MPM); details: cited from earlier work
[5] = system: primary central nervous system lymphoma (PCNSL); details: with R-CHOP; cited from earlier work
[6] = system: L-M cells; test: LM-cells cytolytic assay (MTT); format: cell-based; details: actinomycin D, 20 h, murine proteins
Description: FIG. 8. Biochemical and biological characterization of murine S-NGR-TNF and NGR-TNF. A) SDS-PAGE under reducing (βMe +) and non-reducing conditions (βMe -) of murine S-NGR-TNF, NGR-TNF and TNF. Arrows: bands corresponding to monomeric subunits (mon) and reducible dimers (dim). B) Representative mass spectra of murine NGR-TNF, TNF and S-NGR-TNF as determined by a Q Exactive HF mass spectrometer. Expected average masses are shown. C) Cytotoxic activity of TNF, NGR-TNF and S-NGR-TNF against L-M cells. L-M cells were incubated in DMEM medium supplemented with 2 mM glutamine, 100 U/ml penicillin, 100 µg/ml streptomycin, 0.25 µg/ml amphotericin-B, 10% fetal bovine serum, 2 µg/ml actinomycin D and TNF, NGR-TNF or S-NGR-TNF at the indicated doses (20 h at 37° C., 5% CO2). Cell viability was quantified by standard 3-(4,5-dimethylthiazol-2-yl)-2,5-diphenyltetrazolium bromide (MTT) assay. D) Binding of TNF, NGR-TNF and S-NGR-TNF to sTNF-R1 (Etanercept). Microtiterplates were precoated with or without the indicated amount of sTNF-R1 (for 16 h), washed with PBS, blocked with PBS containing 3% milk, 1% BSA (binding buffer, 1 h) and incubated with the indicated amounts of TNF, NGR-TNF or S-NGR-TNF diluted in binding buffer (for 1.5 h). The binding of each protein to sTNF-R1 was then detected using a polyclonal anti-murine TNF (IP301, 5 µg/ml in binding buffer, 1 h) followed by a polyclonal goat anti-rabbit antibody conjugated with horseradish peroxidase (1:1000 in binding buffer, 1 h) and o-phenylendiammine as chromogenic substrate.
To assess whether the addition of a serine residue to NGR-TNF affects its capability to recognize the TNF receptors and, consequently, its biological activity, inventors then analyzed the cytotoxic activity of TNF, NGR-TNF and S-NGR-TNF in the LM-cells cytolytic assay.

[7] = system: endothelial EA.hy926 cells; test: EA.hy926 endothelial cell adhesion assay on protein-coated microtiterplates; format: cell-based; details: plates coated in PBS, no forced deamidation
Procedure: FIG. 12. […] A) Adhesion of endothelial EA.hy926 cells to 96-wells microtiterplates coated with different amounts of murine TNF, NGR-TNF and S-NGR-TNF in 150 mM sodium chloride, 50 mM sodium phosphate buffer, pH 7.4 (PBS) (16 h). Each well was blocked with 2% BSA in PBS containing calcium chloride and magnesium chloride (DPBS, 30 min), seeded with 40.000 endothelial EA.hy926 cells in DPBS supplemented with 0.1% BSA (DPBS-B), and left to incubate for 2 h at 37° C., 5% CO2. After washing with DMEM-B, adherent cells were stained with crystal violet and quantified by spectrophotometric measurements at 570 nm. B) Microtiterplates pre-coated with 1 µg/ml of murine NGR-TNF or S-NGR-TNF in PBS (for 16 h) were incubated 0.1 M ammonium bicarbonate buffer, pH 8.5 (Ambic) at 37° C. for the indicated time to promote NGR deamidation. EA.hy926 cell adhesion assay was then performed as described above.
This behavior likely reflects a further improvement in the CNGRCG (SEQ ID NO: 1) stability when fused to TNF.

[8] = system: WEHI-164 fibrosarcoma; test: Low-dose treatment in subcutaneous WEHI-164 fibrosarcoma murine model; format: in vivo; details: 25 or 50 pg, i.p.
Procedure: FIG. 14. […] Balb/c mice (6-7 weeks old, weighing 18-20 g) were injected, s.c., with 1.5×10^6 WEHI-164 cells in the left flank and treated 5 days after tumor implantation (i.p.) with 25 or 50 pg of murine NGR-TNF or S-NGR-TNF in 0.9% sodium chloride, containing 100 µg/ml endotoxin-free human serum albumin (arrows). A) Tumor volumes after treatment (mean±SE, 6 mice per group). B) Tumor weight at day 15 (cumulative data of the two groups treated with 25 and 50 pg of drugs). *, P<0.05, **P<0.01 by unpaired t test of the area under the curve for each tumor (GraphPad Prism software).
To assess whether the addition of the Ser residue to NGR-TNF might affect its anti-tumor activity at low dose, inventors then analyzed the therapeutic activity of NGR-TNF and S-NGR-TNF (25 or 50 pg, i.p.) using the subcutaneous WEHI-164 fibrosarcoma murine model.

[9] = system: RMA lymphoma; format: in vivo, mice; details: 100 pg i.p., melphalan two hours later
Procedure: FIG. 15. […] C57BL/6 mice (6-7 weeks old, weighing 18-20 g) were challenged with subcutaneous injection in the left flank of 7×10^4 RMA cells. Mice bearing RMA lymphomas (6 per group) were treated 10-11 days (after tumor implantation with 100 pg of murine NGR-TNF or S-NGR-TNF (i.p.). Two hours later, the mice were injected with the indicated dose of melphalan (i.p.). All proteins were diluted with 0.9% sodium chloride, containing 100 µg/ml endotoxin-free human albumin. Tumor growth was monitored daily by measuring the tumors with calipers. A-B) Tumor volume change of two independent experiments are shown (mean±SE). […] C) Tumor bearing-animals were treated at day 10 after tumor implantation as indicated above using the indicated dose of S-NGR-TNF and the generic preparation of melphalan (Melphalan-Tillomed, from Tillomed Italia). RMA tumor weight at day 20 are shown (mean±SE). *, P<0.05, **P<0.01 by unpaired t test analysis with the GraphPad Prism software.
Effect of melphalan alone or in combination with low-dose murine S-NGR-TNF on the body weight and tumor growth of RMA-T lymphoma-bearing mice. Six tumor-bearing mice were injected with the indicated doses of S-NGR-TNF (i.p) and, two hours later, with the generic preparation of melphalan (Melphalan-Tillomed) (i.p.).
Finally, to assess whether low-dose S-NGR-TNF can exert synergistic effects with chemotherapy, as previously observed for NGR-TNF, inventors performed in vivo experiments with S-NGR-TNF and NGR-TNF in combination with melphalan, a chemotherapeutic drug, using the murine RMA lymphoma model (FIG. 15).

[10] = S-NGR-hTNF 100 pg in combination with melphalan 50 µg

Sequence of αvβ3 (P06756 31-889 limits assumed): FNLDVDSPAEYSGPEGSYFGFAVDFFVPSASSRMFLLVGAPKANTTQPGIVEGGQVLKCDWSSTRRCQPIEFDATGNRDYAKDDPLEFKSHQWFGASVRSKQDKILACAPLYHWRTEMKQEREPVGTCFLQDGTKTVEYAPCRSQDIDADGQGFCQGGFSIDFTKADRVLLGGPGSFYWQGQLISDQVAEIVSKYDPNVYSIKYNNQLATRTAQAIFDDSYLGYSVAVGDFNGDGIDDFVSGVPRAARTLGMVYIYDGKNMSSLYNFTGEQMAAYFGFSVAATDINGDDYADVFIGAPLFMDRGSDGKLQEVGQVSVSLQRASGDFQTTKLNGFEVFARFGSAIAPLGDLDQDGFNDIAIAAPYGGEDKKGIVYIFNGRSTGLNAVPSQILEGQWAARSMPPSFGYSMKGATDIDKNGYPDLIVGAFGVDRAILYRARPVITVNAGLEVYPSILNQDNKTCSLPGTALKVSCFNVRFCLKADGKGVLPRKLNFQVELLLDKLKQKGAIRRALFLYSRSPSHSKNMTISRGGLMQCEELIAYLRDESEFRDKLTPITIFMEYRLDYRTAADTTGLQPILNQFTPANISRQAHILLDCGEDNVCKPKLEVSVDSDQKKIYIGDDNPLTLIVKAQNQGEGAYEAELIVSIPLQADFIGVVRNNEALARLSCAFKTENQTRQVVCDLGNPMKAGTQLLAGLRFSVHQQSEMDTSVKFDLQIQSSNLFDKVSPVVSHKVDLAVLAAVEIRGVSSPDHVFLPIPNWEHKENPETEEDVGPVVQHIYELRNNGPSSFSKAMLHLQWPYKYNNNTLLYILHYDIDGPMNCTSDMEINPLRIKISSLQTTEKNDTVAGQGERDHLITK
Sequence of αvβ3 (P06756 891-1048 partner limits assumed): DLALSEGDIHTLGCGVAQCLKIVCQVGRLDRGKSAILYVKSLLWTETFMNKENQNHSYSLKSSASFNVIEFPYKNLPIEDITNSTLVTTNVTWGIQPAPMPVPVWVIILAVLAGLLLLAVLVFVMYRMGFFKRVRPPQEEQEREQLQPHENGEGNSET
Sequence of αvβ3 (P05106 27-788): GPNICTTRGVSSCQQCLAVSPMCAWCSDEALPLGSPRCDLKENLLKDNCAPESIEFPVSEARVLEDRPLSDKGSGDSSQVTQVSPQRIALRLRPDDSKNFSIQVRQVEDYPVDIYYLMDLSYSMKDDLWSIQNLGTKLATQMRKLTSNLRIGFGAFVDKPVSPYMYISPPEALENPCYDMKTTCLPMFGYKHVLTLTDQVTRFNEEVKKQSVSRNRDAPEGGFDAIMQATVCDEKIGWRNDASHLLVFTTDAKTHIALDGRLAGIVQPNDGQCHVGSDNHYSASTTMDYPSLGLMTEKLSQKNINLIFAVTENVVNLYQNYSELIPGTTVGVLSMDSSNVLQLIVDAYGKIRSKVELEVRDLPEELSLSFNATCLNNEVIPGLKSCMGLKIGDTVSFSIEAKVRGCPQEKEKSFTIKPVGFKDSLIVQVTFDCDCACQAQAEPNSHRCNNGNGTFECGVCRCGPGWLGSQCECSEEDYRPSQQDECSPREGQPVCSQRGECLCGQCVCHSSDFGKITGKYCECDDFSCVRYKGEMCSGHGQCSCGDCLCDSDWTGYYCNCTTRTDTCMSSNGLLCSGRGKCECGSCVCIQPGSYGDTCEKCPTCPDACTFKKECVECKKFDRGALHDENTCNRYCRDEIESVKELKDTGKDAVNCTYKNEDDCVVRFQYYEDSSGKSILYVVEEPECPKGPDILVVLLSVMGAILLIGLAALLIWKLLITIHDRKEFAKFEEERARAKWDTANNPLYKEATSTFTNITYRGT

## N[C@@H](Cc1ccc(N(CCCl)CCCl)cc1)C(=O)O [melphalan, reference compound]
[1]; melphalan 50 µg alone
  median survival: ~28 days

## CNGRC (SEQ ID NO:5) (disulfide 1-5 (inferred); listed as Homo sapiens)
[2]
  deamidation half-life: 4 to 5 h

## CisoDGRC (SEQ ID NO:41) (isoaspartate; disulfide cyclized; MOD_RES (1)..(1) Ciso or acetyl-Ciso or iso) [deamidation product of CNGRC]
[3]
  affinity for αvβ3 greater than αvβ5, αvβ6, αvβ8, and α5β1: 10-100 fold

## S-NGR-hTNF: Human SCNGRCG-TNF fusion protein expressed in E. coli (SEQ ID NO:27/28)
[1]; [10]
  median survival: 36.5 days
  toxicity of melphalan, judged from loss of animal weight: without increasing its toxicity

## human NGR-TNF: CNGRCG fused to the human TNF sequence, tested in Phase II and III clinical studies
[4]; 0.8 µg/m^2, 1 h infusion
  disease control in previously treated patients: about half
[4]; triweekly cohort
  duration of disease control: 4.4 months
[4]; weekly cohort
  duration of disease control: 9.1 months
[5]
  complete responses: 50%
  responses: 75%

B1: NGR-TNF: Murine CNGRCG-TNF fusion protein, conventional first-generation conjugate used as comparator (protein)
chain: CNGRCGLRSSSQNSSDKPVAHVVANHQVEEQLEWLSQRANALLANGMDLKDNQLVVPADGLYLVYSQVLFKGQGCPDYVLLTHTVSRFAISYQEKVNLLSAVKSPCPKDTPEGAELKPWYEPIYLGGVFQLEKGDQLSAEVNLPKYLDFAESGQVYFGVIAL
[6]
  EC50 cytotoxic activity: very similar
[7]
  EA.hy926 cell adhesion to coated plates: cell adhesion was observed
[8]
  toxicity: No evidence of toxicity
  tumor growth: delayed tumor growth to similar extent
[9]
  efficacy of melphalan in combination: could enhance the efficacy of melphalan
